Substrate in data set [1]: NC(=O)C1=CN([C@@H]2O[C@H](COP(=O)(O)OP(=O)(O)OC[C@H]3O[C@@H](n4cnc5c(N)ncnc54)[C@H](O)[C@@H]3O)[C@@H](O)[C@H]2O)C=CC1
Description: purified protein. In kind it is biochemical, Scheffersomyces stipitis. Particulars: 50 mM potassium phosphate pH 6.0.

Substrate in data set [2]: NC(=O)C1=CN([C@@H]2O[C@H](COP(=O)(O)OP(=O)(O)OC[C@H]3O[C@@H](n4cnc5c(N)ncnc54)[C@H](OP(=O)(O)O)[C@@H]3O)[C@@H](O)[C@H]2O)C=CC1
Description: purified protein. It counts as biochemical, Scheffersomyces stipitis. To be noted: 50 mM potassium phosphate pH 6.0.

Setting [3] is: mutant NT-K270R/N272D, 0.5 M xylose.

B1: PsXR (wild-type NT-XR), Pichia stipitis xylose reductase (Scheffersomyces stipitis CBS 6054) (protein)
chain: MPSIKLNSGYDMPAVGFGCWKVDVDTCSEQIYRAIKTGYRLFDGAEDYANEKLVGAGVKKAIDEGIVKREDLFLTSKLWNNYHHPDNVEKALNRTLSDLQVDYVDLFLIHFPVTFKFVPLEEKYPPGFYCGKGDNFDYEDVPILETWKALEKLVKAGKIRSIGVSNFPGALLLDLLRGATIKPSVLQVEHHPYLQQPRLIEFAQSRGIAVTAYSSFGPQSFVELNQGRALNTSPLFENETIKAIAAKHGKSPAQVLLRWSSQRGIAIIPKSNTVPRLLENKDVNSFDLDEQDFADIAKLDINLRFNDPWDWDKIPIFV
On to B1, for which, in data set [1] (0.5 M xylose), the Km is 10.6 ± 0.6 µM, the kcat is 15.4 ± 0.583 s⁻¹ and the kcat/Km was found to be 1.46e+06 ± 112000 M⁻¹ s⁻¹. In addition, in data set [2] (0.5 M xylose), the Michaelis constant (Km) came to 6.2 ± 1.4 µM, the kcat was 27.5 ± 3.28 s⁻¹ and the kcat/Km worked out at 4.65e+06 ± 938000 M⁻¹ s⁻¹.

B2: PsXR (wild-type NT-XR), Pichia stipitis xylose reductase (Scheffersomyces stipitis CBS 6054; K270S/N272P) (protein)
chain: MPSIKLNSGYDMPAVGFGCWKVDVDTCSEQIYRAIKTGYRLFDGAEDYANEKLVGAGVKKAIDEGIVKREDLFLTSKLWNNYHHPDNVEKALNRTLSDLQVDYVDLFLIHFPVTFKFVPLEEKYPPGFYCGKGDNFDYEDVPILETWKALEKLVKAGKIRSIGVSNFPGALLLDLLRGATIKPSVLQVEHHPYLQQPRLIEFAQSRGIAVTAYSSFGPQSFVELNQGRALNTSPLFENETIKAIAAKHGKSPAQVLLRWSSQRGIAIIPSSPTVPRLLENKDVNSFDLDEQDFADIAKLDINLRFNDPWDWDKIPIFV
In the case of B2, in data set [1] (mutant 1-2F7, 0.5 M xylose), the Km was found to be 512 ± 22 µM, the kcat was determined as 18.5 ± 1.3 s⁻¹ and the kcat/Km amounted to 36300 ± 2520 M⁻¹ s⁻¹. Further, in data set [2] (mutant 1-2F7, 0.5 M xylose), the Km was 849 ± 45 µM, the kcat is 35.2 ± 3.93 s⁻¹ and the kcat/Km came to 41700 ± 5000 M⁻¹ s⁻¹.

B3: PsXR (wild-type NT-XR), Pichia stipitis xylose reductase (Scheffersomyces stipitis CBS 6054; K270S/N272P/R276F/S271G) (protein)
chain: MPSIKLNSGYDMPAVGFGCWKVDVDTCSEQIYRAIKTGYRLFDGAEDYANEKLVGAGVKKAIDEGIVKREDLFLTSKLWNNYHHPDNVEKALNRTLSDLQVDYVDLFLIHFPVTFKFVPLEEKYPPGFYCGKGDNFDYEDVPILETWKALEKLVKAGKIRSIGVSNFPGALLLDLLRGATIKPSVLQVEHHPYLQQPRLIEFAQSRGIAVTAYSSFGPQSFVELNQGRALNTSPLFENETIKAIAAKHGKSPAQVLLRWSSQRGIAIIPSGPTVPFLLENKDVNSFDLDEQDFADIAKLDINLRFNDPWDWDKIPIFV
For the protein B3, in data set [1] (mutant 2-2C12, 0.5 M xylose), the Km was determined as 147 ± 12 µM, the kcat came out at 12 ± 0.95 s⁻¹ and the specificity constant (kcat/Km) came to 81700 ± 5250 M⁻¹ s⁻¹. Moreover, in data set [2] (mutant 2-2C12, 0.5 M xylose), the Km was found to be 427 ± 17 µM, the kcat amounted to 2.63 ± 0.15 s⁻¹ and the kcat/Km is 6170 ± 317 M⁻¹ s⁻¹.

B4: PsXR (wild-type NT-XR), Pichia stipitis xylose reductase (Scheffersomyces stipitis CBS 6054; K270R/N272D) (protein)
chain: MPSIKLNSGYDMPAVGFGCWKVDVDTCSEQIYRAIKTGYRLFDGAEDYANEKLVGAGVKKAIDEGIVKREDLFLTSKLWNNYHHPDNVEKALNRTLSDLQVDYVDLFLIHFPVTFKFVPLEEKYPPGFYCGKGDNFDYEDVPILETWKALEKLVKAGKIRSIGVSNFPGALLLDLLRGATIKPSVLQVEHHPYLQQPRLIEFAQSRGIAVTAYSSFGPQSFVELNQGRALNTSPLFENETIKAIAAKHGKSPAQVLLRWSSQRGIAIIPRSDTVPRLLENKDVNSFDLDEQDFADIAKLDINLRFNDPWDWDKIPIFV
For B4, in data set [1] (setting [3]), the Km was 58 ± 9 µM, the kcat amounted to 17.9 ± 2.07 s⁻¹ and the specificity constant (kcat/Km) is 313000 ± 40000 M⁻¹ s⁻¹. Moreover, in data set [2] (setting [3]), the Km came to 142 ± 31 µM, the turnover number (kcat) was 15.9 ± 3.38 s⁻¹ and the kcat/Km is 107000 ± 24800 M⁻¹ s⁻¹.

Usually Km stands for the substrate concentration at which the rate is half of its maximum. As a reminder, the kcat is the number of substrate molecules converted per active site and unit of time at saturation. A word on the kcat/Km: it is the second-order rate constant that governs catalysis at low substrate concentration.

The record behind these values is article PMC2213684, “Altering coenzyme specificity of Pichia stipitis xylose reductase by the semi-rational approach CASTing” (Microbial Cell Factories, 2007).
